Patent US20250059273A1 (UNM RAINFOREST INNOVATIONS, published 2025)
Values belong to the binder of their own block, whether it stands above or below them. Ends that are not written are not given here.

How the values were obtained:
human P2X4 peptide [1] = molecular target: T1, human P2X4 peptide (human, UniProt Q99571 301-313); experiment: indirect ELISA, wells coated with human P2X4 peptide, anti-His detection
T1 construct: range 301-313; The range 301-313 is stated for rat P2X4R, with the human peptide as its 'human form'; also called human Target P2X4R peptide; thirteen amino acid extracellular peptide fragment of human P2X4 receptor
T1 peptide (looked up): RDLAGNEQRTLIK

[2] = molecular target: T2, Hu CCK-B receptor protein (human, UniProt P32239 1-447, limits assumed); experiment: indirect ELISA on human CCK-B receptor protein, concentration not shown
T2 construct: also called human CCK-B receptor
T2 sequence (looked up): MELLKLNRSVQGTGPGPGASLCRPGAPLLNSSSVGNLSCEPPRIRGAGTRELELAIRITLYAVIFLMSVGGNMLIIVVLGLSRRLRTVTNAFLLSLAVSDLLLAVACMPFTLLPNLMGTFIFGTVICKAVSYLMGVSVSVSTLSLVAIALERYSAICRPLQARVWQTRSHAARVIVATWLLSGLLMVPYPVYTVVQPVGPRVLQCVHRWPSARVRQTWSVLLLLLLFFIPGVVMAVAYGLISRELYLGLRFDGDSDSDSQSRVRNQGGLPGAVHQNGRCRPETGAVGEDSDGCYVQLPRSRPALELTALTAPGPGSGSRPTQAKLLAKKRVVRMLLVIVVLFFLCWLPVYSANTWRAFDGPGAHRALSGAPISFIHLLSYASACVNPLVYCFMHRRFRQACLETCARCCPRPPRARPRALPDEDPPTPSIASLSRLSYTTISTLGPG

[3] = molecular target: T3, rat P2X4R extracellular peptide (a.a. 301-313, C-RDLAGKEQRTLTK) (rat, not fully specified (N-terminus)); experiment: indirect ELISA of purified scFv on rat P2X4 peptide, concentration not shown
T3 construct: also called P2X4R peptide; rat P2X4 peptide
T3 peptide: RDLAGKEQRTLTK

human P2X4 peptide [4] = molecular target: T1, human P2X4 peptide; experiment: indirect ELISA on human P2X4 peptide
[5] = molecular target: T3, rat P2X4R extracellular peptide (a.a. …); experiment: indirect ELISA titration on P2X4R peptide; legend box headed 'APPARENT Kd (nM)'
[6] = molecular target: human and mouse peptide targets; experiment: not stated (estimated affinity)

B1: humanized P2X4R scFv HC2-LC3 (scFv)
scFv: MAQVQLQESGPGLVKPSQTLSLTCTTSGFTFTDYYMSWVRQAPGKGLEWIGFIRNKANGYTTEYSASVKGRFTISRDNSKNQFSLRLSSVTAADTAVYYCARWEGDLLYAMDYWGQGTTVTVSSGGGGSGGGGSGGGGSDIQMTQSPSSLSASVGDRVTITCRASQGISNYLNWYQQKPGKAPKLLIYYTSSLHSGVPSRFSGSGSGTDFTLTISSLQPEDFAYYYCQQYSKLPWTFGGGTKVEIKRAAALEHHHHHH
notes: HC-(G4S)3-LC with C-terminal His tag
Kd (human P2X4 peptide [1]): 29 nM
binding result [2]: no binding
binding result [3]: binds

B3: humanized P2X4R scFv HC1-LC1 (scFv)
scFv: MAEVKLVESGGGLVQPGGSLRLSCATSGFTFTDYYMSWVRQPPGKALEWLGFIRNKANGYTTEYSASVKGRFTISRDNSQSILYLQMNTLRAEDSATYYCARWEGDLLYAMDYWGQGTSVTVSSGGGGSGGGGSGGGGSDIQMTQTTSSLSASLGDRVTISCSASQGISNYLNWYQQKPDGTVKLLIYYTSSLHSGVPSRFSGSGSGTDYSLTISNLEQEDIATYYCQQYSKLPWTFGGGTKLEIKRAAALEHHHHHH
notes: HC-(G4S)3-LC with C-terminal His tag, expressed in E. coli
Kd (human P2X4 peptide [1]): 24 nM
binding result [2]: no binding
binding result [3]: binds

B5: P2X4-scFv12 (scFv)
scFv: MADVKLQESGPGLVKPSQSLSLTCSVTGYSITSGYYWNWIRQFPGNKLEWMGYISYDGSNNYNPSLKNRISITRDTSKNQFFLKLNSVTTEDTATYYCARSDYDLYYYAMDYWGQGTSVTVSSAKTTPPSGGGGSGGGGSGGGGGSGGGGSDIVMTQSPATLSVTPGDRVSLSCRASQSISDYLHWYQQKSHESPRLLIKYASQSISGIPSRFSGSGSGSDFTLSINSVEPEDVGVYYCQNGHSFPLTFGSGTKLEIKRADAAALEHHHHHH
Kd [5]: 177 nM

B6: P2X4-scFv103 (scFv)
scFv: MAQVQLKESGAELVRSGASVKLSCTASGFNIKNTYMHWVKQRPEQGLEWIGRIDPASGNTKYAPKFQGKATITADTSSNTAYLQLSSLTSEDTAIYYCARFYDGYYWGQGTTLTVSSAKTTAPSGGGGSGGGGSGGGGSGGGGSAIMSASPGEKVTMTCSASSSVSYMHWYQQKSGTSPKRWIYDTSKLASGVPARFSGSGSGTSYSLTISRMEAEDAATYYCQQYSGYGTFGGGTKLEIKRADAAALEHHHHHH
Kd [5]: 978 nM

B7: P2X4-scFv95 (parental murine anti-P2X4R scFv) (scFv)
scFv: MAEVKLVESGGGLVQPGGSLRLSCATSGFTFTDYYMSWVRQPPGKALEWLGFIRNKANGYTTEYSASVKGRFTISRDNSQSILYLQMNTLRAEDSATYYCARWEGDLLYAMDYWGQGTSVTVSSGGGGSGGGGSGGGGGSGGGGSDIQMTQTTSSLSASLGDRVTISCSASQGISNYLNWYQQKPDGTVKLLIYYTSSLHSGVPSRFSGSGSGTDYSLTISNLEPEDIATYYCQQYSKLPWTFGGGTKLEIKRADAAALEHHHHHH
notes: also called mscFv95; clone 95
Kd [6]: 130 to 190 nM
Kd (human P2X4 peptide [1]): 130 nM
binding result [2]: no binding
Kd [5]: 130 nM

B8: humanized P2X4R scFv HC2-LC1 (scFv)
scFv: MAQVQLQESGPGLVKPSQTLSLTCTTSGFTFTDYYMSWVRQAPGKGLEWIGFIRNKANGYTTEYSASVKGRFTISRDNSKNQFSLRLSSVTAADTAVYYCARWEGDLLYAMDYWGQGTTVTVSSGGGGSGGGGSGGGGSDIQMTQTTSSLSASLGDRVTISCSASQGISNYLNWYQQKPDGTVKLLIYYTSSLHSGVPSRFSGSGSGTDYSLTISNLEQEDIATYYCQQYSKLPWTFGGGTKLEIKRAAALEHHHHHH
notes: as for B3
fold affinity improvement over parental mscFv95 (human P2X4 peptide [4]): > 10 fold
Kd (human P2X4 peptide [1]): 12 nM
binding result [2]: no binding
binding result [3]: binds

Continued, values first:

fold affinity enhancement over parental mscFv95 (human P2X4 peptide [4]): > 50 fold
fold affinity improvement over parental mscFv95 (human P2X4 peptide [4]): > 10 fold
Kd (human P2X4 peptide [1]): 2.3 nM
binding result [2]: no binding
binding result [3]: binds
B2: humanized hP2X4R scFv HC3-LC3 (scFv)
scFv: MAEVQLVESGGGLVQPGGSLRLSCATSGFTFTDYYMHWVRQAPGKGLEWVGFIRNKANGYTTEYSASVKGRFTISRDNSKNTLYLQMNSLRAEDTAVYYCARWEGDLLYAMDYWGQGTLVTVSSGGGGSGGGGSGGGGSDIQMTQSPSSLSASVGDRVTITCRASQGISNYLNWYQQKPGKAPKLLIYYTSSLHSGVPSRFSGSGSGTDFTLTISSLQPEDFAYYYCQQYSKLPWTFGGGTKVEIKRAAALEHHHHHH
notes: HC-(G4S)3-LC with C-terminal His tag; also called hP2X4R HC3-LC3 scFv; HC3 LC3 hP2X4R scFv

fold affinity improvement over parental mscFv95 (human P2X4 peptide [4]): > 10 fold
Kd (human P2X4 peptide [1]): 4.7 nM
binding result [2]: no binding
binding result [3]: binds
B4: humanized P2X4R scFv HC3-LC1 (scFv)
scFv: MAEVQLVESGGGLVQPGGSLRLSCATSGFTFTDYYMHWVRQAPGKGLEWVGFIRNKANGYTTEYSASVKGRFTISRDNSKNTLYLQMNSLRAEDTAVYYCARWEGDLLYAMDYWGQGTLVTVSSGGGGSGGGGSGGGGSDIQMTQTTSSLSASLGDRVTISCSASQGISNYLNWYQQKPDGTVKLLIYYTSSLHSGVPSRFSGSGSGTDYSLTISNLEQEDIATYYCQQYSKLPWTFGGGTKLEIKRAAALEHHHHHH
notes: as for B3
